Reference: patent US20120172295A1 (INDIANA UNIVERSITY RESEARCH AND TECHNOLOGY, published 2012)
Like-named read-outs stand apart in the source and are kept apart here. No end group written: not given here.

Tests used:
Test in all cases: cell-based or functional assay
glucagon receptor [1] = molecular target: T1, glucagon receptor (UniProt P47871 26-477, limits assumed)
GLP-1 receptor [2] = molecular target: T2, GLP-1 receptor (UniProt P43220 24-463, limits assumed)
glucagon receptor [3] = molecular target: T1, glucagon receptor; remark: listed apart in the source
GLP-1 receptor [4] = molecular target: T2, GLP-1 receptor; remark: listed apart in the source
glucagon receptor [5] = molecular target: T1, glucagon receptor; remark: listed apart in the source
GLP-1 receptor [6] = molecular target: T2, GLP-1 receptor; remark: listed apart in the source
glucagon receptor [7] = molecular target: T1, glucagon receptor; remark: listed apart in the source
GLP-1 receptor [8] = molecular target: T2, GLP-1 receptor; remark: listed apart in the source
glucagon receptor [9] = molecular target: T1, glucagon receptor; remark: listed apart in the source
GLP-1 receptor [10] = molecular target: T2, GLP-1 receptor; remark: listed apart in the source

T1 sequence (P47871 26-477 limits assumed): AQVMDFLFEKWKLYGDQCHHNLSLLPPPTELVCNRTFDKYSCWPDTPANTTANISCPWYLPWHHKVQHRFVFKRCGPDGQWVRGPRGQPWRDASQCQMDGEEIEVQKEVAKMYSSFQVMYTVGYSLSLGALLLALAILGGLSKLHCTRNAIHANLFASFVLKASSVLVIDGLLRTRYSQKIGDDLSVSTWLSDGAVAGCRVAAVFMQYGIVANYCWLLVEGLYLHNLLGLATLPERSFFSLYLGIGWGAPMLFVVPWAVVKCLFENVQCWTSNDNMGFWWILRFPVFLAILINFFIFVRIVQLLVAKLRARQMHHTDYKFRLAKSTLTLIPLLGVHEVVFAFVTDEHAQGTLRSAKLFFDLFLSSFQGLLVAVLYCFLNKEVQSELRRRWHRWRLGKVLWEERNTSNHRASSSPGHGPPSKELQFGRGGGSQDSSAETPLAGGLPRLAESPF

EC50 (glucagon receptor [1]): 0.203 nM
EC50 (GLP-1 receptor [2]): 0.188 nM
EC50 (glucagon receptor [3]): 0.18 nM
EC50 (GLP-1 receptor [4]): 0.21 nM
Percent Potency Relative to Native Ligand (glucagon receptor [5]): 130%
Percent Potency Relative to Native Ligand (GLP-1 receptor [6]): 41.5%
EC50 (glucagon receptor [7]): 0.18 nM
EC50 (GLP-1 receptor [8]): 0.21 nM
Percent Potency Relative to Native Ligand (glucagon receptor [9]): 130%
Percent Potency Relative to Native Ligand (GLP-1 receptor [10]): 41.5%
Binder: HSQGTFTSDYSKYLDERRAKDFVQWLMNT-NH2 [E16 K20-glucagon-NH2]
